The values below come from patent US20190381150.

For this series, the target named is Human lactoferrin (lactoferrin from human milk, Sigma) (UniProt P02788).
Human lactoferrin (lactoferrin from human milk, Sigma), sequence (P02788 20-710): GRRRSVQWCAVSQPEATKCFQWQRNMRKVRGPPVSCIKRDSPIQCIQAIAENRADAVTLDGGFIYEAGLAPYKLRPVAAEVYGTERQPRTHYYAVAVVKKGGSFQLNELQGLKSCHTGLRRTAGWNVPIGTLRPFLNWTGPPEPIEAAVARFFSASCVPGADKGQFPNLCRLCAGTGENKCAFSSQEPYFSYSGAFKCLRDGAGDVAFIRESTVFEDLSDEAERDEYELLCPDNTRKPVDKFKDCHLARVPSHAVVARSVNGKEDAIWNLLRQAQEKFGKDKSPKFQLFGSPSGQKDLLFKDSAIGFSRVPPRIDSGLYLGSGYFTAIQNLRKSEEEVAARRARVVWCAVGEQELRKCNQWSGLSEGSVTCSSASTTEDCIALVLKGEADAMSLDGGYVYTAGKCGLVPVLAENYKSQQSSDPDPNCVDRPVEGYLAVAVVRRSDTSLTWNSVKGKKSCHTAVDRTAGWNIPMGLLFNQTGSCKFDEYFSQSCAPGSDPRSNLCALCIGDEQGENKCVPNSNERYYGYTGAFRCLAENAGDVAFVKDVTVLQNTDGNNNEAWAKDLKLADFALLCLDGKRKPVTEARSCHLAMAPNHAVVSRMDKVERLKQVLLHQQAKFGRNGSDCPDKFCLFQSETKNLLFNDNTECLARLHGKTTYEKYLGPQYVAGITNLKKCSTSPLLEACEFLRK

In the case of “EndoBI-1 D184N (Asp 184 of EndoBI-1 mutated to Asn184), recombinant, signal sequence and transmembrane domains deleted”, the “shift in molecular weight on SDS-PAGE of human milk after overnight incubation” value is “No change was observed when the milk sample was incubated with EndoBI-1 D184N”.
